Results: patent publication US7449553B2, “Antibody that binds ceramidase” (Takara Bio Inc., priority 1999, dated 2008)
“Also recorded” adds a separate entry of the source.

Assay: Temperature stability of the ceramidase
Assay type: physicochemical
Conditions: 20 mM Tris-HCl pH 7.5, 0.1% polidocanol (Lubrol PX)
Experimental: The activity of the ceramidase can be determined in accordance with the method described, for instance, in J. Biol. Chem., 275, 3462-3468 (2000). Concretely, a reaction mixture prepared by dissolving 550 pmol of 12-((N-(7-nitrobenz-2-oxa-1,3-diazol-4-yl)amino)dodecanoyl)sphingosine, hereinafter referred to as C12-NBD-ceramide [Anal. Biochem., 263, 183-188 (1998)], 1.0% (W/V) sodium cholate and a suitable amount of an enzyme (ceramidase) in 20 μl of 25 mM Tris-hydrochloric acid buffer (pH 7.5) is incubated at 37° C. for 30 minutes. The reaction mixture is incubated in a boiling water bath for 5 minutes, thereby stopping the reaction. The resulting reaction mixture is further evaporated to dryness under reduced pressure. The dried solid is dissolved in chloroform/methanol=2/1 (V/V), and developed by silica gel thin layer chromatography (developing solvent: chloroform/methanol/25% aqueous ammonia=90/20/0.5 (V/V/V)). Thereafter, the 12-(N-7-nitrobenz-2-oxa-1,3-diazol-4-yl)amino)dodecanoyl acid, hereinafter referred to as C12-NBD-fatty acid generated by the above-mentioned reaction is quantified by using CS-9300 Chromatoscanner (manufactured by Shimadzu Corporation) at an excitation wavelength of 475 nm and a fluorescent wavelength 525 nm. […]

B1: ceramidase: isolated and purified neutral/alkaline ceramidase derived from a mouse liver, mature form SEQ ID NO: 14 (protein, listed as Mus sp.)
chain: FSGYYIGVGRADCTGQVSDINLMGYGKNGQNARGLLTRLFSRAFILADPDGSNRMAFVSVELCMISQRLRLEVLKRLESKYGSLYRRDNVILSAIHTHSGPAGFFQYTLYILASEGFSNRTFQYIVSGIMKSIDIAHTNLKPGKIFINKGNVANVQINRSPSSYLLNPQSERARYSSNTDKEMLVLKLVDLNGEDLGLISWFAIHPVSMNNSNHFVNSDNMGYAAYLFEQEKNKGYLPGQGPFVAGFASSNLGDVSPNILGPHCVNTGESCDNDKSTCPNGGPSMCMASGPGQDMFESTHIIGRIIYQKAKELYASASQEVTGPVLAAHQWVNMTDVSVQLNATHTVKTCKPALGYSFAAGTIDGVSGLNITQGTTEGDPFWDTLRDQLLGKPSEEIVECQKPKPILLHSGELTIPHPWQPDIVDVQIVTVGSLAIAAIPGELTTMSGRRFREAIKKEFALYGMKDMTVVIAGLSNVYTHYITTYEEYQAQRYEAASTIYGPHTLSAYIQLFRDLAKAIATDTVANMSSGPEPPFFKNLIASLIPNIADRAPIGKHFGDVLQPAKPEYRVGEVVEVIFVGANPKNSAENQTHQTFLTVEKYEDSVADWQIMYNDASWETRFYWHKGILGLSNATIYWHIPDTAYPGIYRIRYFGHNRKQELLKPAVILAFEGISSPFEVVTT
- Activity after treatment at 37° C. for 24 hours: reduced activity not being observed; also recorded: does not show the reduced activity
- Activity after treatment at 60° C. for 1 hour, relative to activity before the treatment: about 30%
